The values below come from paper PMC6962051, “Auxiliary-assisted chemical ubiquitylation of NEMO and linear extension by HOIP” (Communications chemistry, 2019).

Data set [1] concerns the molecule itself. Briefly: circular dichroism thermal melting at different concentrations; PBS pH 7.4; ellipticity at 222 nm, 2-80 °C, 2 °C/min; melting temperature rises with the concentration of NEMO_(CoZi) (20.2, 24.9, 28.5 °C); monomer to coiled-coil dimer. In general terms: CD spectra are sensitive to the conformation of chiral molecules.
Data set [2] concerns the target T1, linear di-Ubiquitin (UniProt P0CG47 1-76; P0CG47 1-76).
T1 construct: ubiquitin (1-76), distal unit of the linear (M1-linked) dimer; ubiquitin (1-76), proximal unit, its Met1 joined by a peptide bond to Gly76 of the first unit; also called linear diubiquitin chains
Briefly: BLI; biotinylated NEMO_(CoZi) or NEMO_(CoZi)-Ub immobilised on streptavidin biosensors (~2 ug/mL); di-Ub at 2-225 uM; 25 °C; 100 s association, 100 s dissociation; 10 mM HEPES pH 7.4, 150 mM NaCl, 3 mM EDTA, 0.005% Tween-20; equilibrium analysis of response against di-Ub concentration. Conditions: both partners purified. (Biolayer interferometry detects binding as a change in optical thickness at a sensor tip.)

B1: synthetic biotinylated mouse NEMO CoZi domain (NEMO_(CoZi)), 83-mer (domain or fragment)
chain: EDLRQQLQQAEEALVAKQELIDKLKEEAEQHKIVMETVPVLKAQADIYKADFQAERHAREKLVEKKEYLQEQLEQLQREFNKL
modifications: biotin on the N-terminus; C-terminal amide
notes: CoZi (coiled-coil and leucine zipper) domain of mouse NEMO, 83-mer; The unmodified peptide is the same 83-mer after Alloc removal, without the auxiliary; also called unmodified NEMO_(CoZi); source: synthetic peptide (solid-phase synthesis in a single piece, HPLC purified); not shown: biotin, N-terminal, kept
By Kd is commonly meant a measure of binding affinity in units of concentration. Regarding B1, in data set [1], the binding result was “binds”. The molecule also had a Kd in data set [2] of 25 µM.
